Source: IntAct's records for PubMed 17043237

B1: Pre-B-cell leukemia transcription factor-interacting protein 1 (Homo sapiens), Q96AQ6-1 (parent)
chain: MASCPDSDNSWVLAGSESLPVETLGPASRMDPESERALQAPHSPSKTDGKELAGTMDGEGTLFQTESPQSGSILTEETEVKGTLEGDVCGVEPPGPGDTVVQGDLQETTVVTGLGPDTQDLEGQSPPQSLPSTPKAAWIREEGRCSSSDDDTDVDMEGLRRRRGREAGPPQPMVPLAVENQAGGEGAGGELGISLNMCLLGALVLLGLGVLLFSGGLSESETGPMEEVERQVLPDPEVLEAVGDRQDGLREQLQAPVPPDSVPSLQNMGLLLDKLAKENQDIRLLQAQLQAQKEELQSLMHQPKGLEEENAQLRGALQQGEAFQRALESELQQLRARLQGLEADCVRGPDGVCLSGGRGPQGDKAIREQGPREQEPELSFLKQKEQLEAEAQALRQELERQRRLLGSVQQDLERSLQDASRGDPAHAGLAELGHRLAQKLQGLENWGQDPGVSANASKAWHQKSHFQNSREWSGKEKWWDGQRDRKAEHWKHKKEESGRERKKNWGGQEDREPAGRWKEGRPRVEESGSKKEGKRQGPKEPPRKSGSFHSSGEKQKQPRWREGTKDSHDPLPSWAELLRPKYRAPQGCSGVDECARQEGLTFFGTELAPVRQQELASLLRTYLARLPWAGQLTKELPLSPAFFGEDGIFRHDRLRFRDFVDALEDSLEEVAVQQTGDDDEVDDFEDFIFSHFFGDKALKKRSGKKDKHSQSPRAAGPREGHSHSHHHHHRG

Variants of: B1
Details: with esr1_human ESR1, P03372
Chain of esr1_human ESR1, P03372 (P03372 whole entry): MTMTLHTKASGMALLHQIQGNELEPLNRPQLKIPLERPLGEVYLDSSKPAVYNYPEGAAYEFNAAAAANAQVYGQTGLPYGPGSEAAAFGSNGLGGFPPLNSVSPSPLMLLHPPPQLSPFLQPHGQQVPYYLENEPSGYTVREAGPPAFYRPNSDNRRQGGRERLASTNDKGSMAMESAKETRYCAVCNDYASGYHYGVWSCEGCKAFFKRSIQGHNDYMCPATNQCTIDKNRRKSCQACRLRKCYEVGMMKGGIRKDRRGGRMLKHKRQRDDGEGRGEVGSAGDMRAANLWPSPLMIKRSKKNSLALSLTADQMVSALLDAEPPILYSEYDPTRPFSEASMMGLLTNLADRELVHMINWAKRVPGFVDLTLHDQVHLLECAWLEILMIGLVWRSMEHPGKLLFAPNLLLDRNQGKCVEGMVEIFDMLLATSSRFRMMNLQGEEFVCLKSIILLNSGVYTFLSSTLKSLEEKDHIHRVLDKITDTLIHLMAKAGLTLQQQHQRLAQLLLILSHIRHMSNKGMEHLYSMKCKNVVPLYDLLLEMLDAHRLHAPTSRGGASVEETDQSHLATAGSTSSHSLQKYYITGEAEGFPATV

effect of a mutation on the interaction	Variant
disrupting interaction strength	L615A;L618A;L619A
